Experiment [1] addresses GST-MDM2 (human MDM2 residues 17-125) (human) (UniProt Q00987). In words: ratio of KD values of FITC-labeled peptides.
Experiment [2] has the same target. In words: direct binding of the FITC-labeled peptide to MDM2.

Data on one substance can be found in patent US20230106131A1.

GST-MDM2 (human MDM2 residues 17-125) (human), sequence (Q00987 17-125): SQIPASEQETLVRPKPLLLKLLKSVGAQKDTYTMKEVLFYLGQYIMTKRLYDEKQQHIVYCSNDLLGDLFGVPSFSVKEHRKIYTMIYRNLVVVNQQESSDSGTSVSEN

As usually defined, the Kd is the constant that tells how readily two partners part at equilibrium. High values mean a looser complex, low ones a tighter complex. Turning to “peptide 9, Ac-LTFhCHYWhCQLTS-miniPEG-K(FITC)-NH2, stapled with BBA-CPP9”, in experiment [1], the fold decrease of affinity against peptide 8 came out at 8 fold. The Kd in experiment [2] was determined as 114 nM.
